According to patent US20250179151A1, “SPIKE FURIN CLEAVAGE IS A SARS-COV-2 TARGETING STRATEGY TO BREAK THE CHAIN OF INFECTION CYCLE” (University of Virginia Patent Foundation, priority 2022, published 2025):
Entries after “also recorded” stand apart in the source; their conditions may differ. Peptide text beside a SMILES is read from it. * marks the point of attachment. Cbz = O=C(OCc1ccccc1)*

What was measured:
[1] = target: T1, furin (Homo sapiens, UniProt P09958); format: biochemical; conditions: peptide inserted in rDR5-IgG4-Fc; 10 ng recombinant furin
[2] = tested on: spike S0; format: cell-based, SARS-CoV-2
[3] = tested on: pseudoviral spike S0 and S2; format: cell-based, SARS-CoV-2
[4] = tested on: spike S1/S2 cleavage; format: cell-based, SARS-CoV-2
[5] = tested on: 293-ACE2 cells; format: cell-based; conditions: spike transfected 293-ACE2 cells, 24 hours
[6] = tested on: spike cleavage at S1/S2; format: cell-based, SARS-CoV-2
[7] = target: T2, IgG4-Fc tagged rFOLR1 antigen (UniProt P15328 25-233); assay: ELISA, IgG4-Fc tagged rFOLR1 coated, detection with anti-IgG1-Fc HRP
T2 construct: extracellular domain; also called recombinant IgG4-Fc FOLR1

[8] = target: T1, furin; assay: Furin protease activity assay (fluorogenic substrate); format: biochemical; conditions: particularly at higher doses; compared with farletuzumab-cFuG1
Protocol: (§1) FIGS. 2A-2C. Furin inhibitory function and flexibility of Fc-extended FuG1 peptide strategy. (FIG. 2A) The binding kinetics of immobilized biotinylated furin against indicated farletuzumab-FuG1, farletuzumab-cFuG1, and Farletuzumab-IgG1 were measured using BLI. (FIGS. 2B and 2C) FuG1 and cFuG1 antibodies were tested using a competitive inhibitory furin assay kit, which measures fluorescent signal as an indicator of the protease activity kinetics.
Furin protease activity assay. Different concentrations of farletuzumab-FuGi, farletuzumab-cFuGi (25-250 ng) or furin assay buffer (negative control) were pre-incubated with 25 ng of furin (50 μl, 0.5 ng/μl in furin assay buffer) in a total reaction volume of 100 μl for 10 minutes at room temperature. […] The fluorescence intensity of the reaction mixture was monitored at excitation wavelength of 380 nm and detection of emission at wavelength 460 nm using 96 well microplate reader (BioTek Instruments Inc, USA). […] For kinetic study, fluorescence was measured immediately after adding the protease substrate and data was recorded every 1 minute for 15 min at Ex/Em=380 nm/460 nm.
To confirm furin binding and competing function, farletuzumab-FuG1 and farletuzumab-cFuG1 were expressed in the presence of furin inhibitors. Purified antibodies were analyzed for their Fc-extended peptide binding to biotinylated furin using BLI. […]

[9] = target: T1, furin; assay: BLI binding kinetics against immobilized biotinylated furin; conditions: compared to cFuG1
Protocol: as §1
Binding studies by BioLayer Interferometry (BLI). Binding measurements were performed using Bio-Layer Interferometry on FortéBio Red Octet 96 instrument (Pall) as described in Shivange et al., 2018. Biotin-Streptavidin based sensors were employed for the studies. Recombinant Fc linked DR5 variants were biotinylated using EZ-Link Sulfo-NHS—SS-Biotin (Thermo Scientific 21331) following the manufacturer's instructions. Unreacted Sulfo-NHS—SS-Biotin reaction was quenched by 50 mM Tris-Cl pH 7.4 and removed via dialyzing against PBS. For binding analysis biotinylated antigen (1 μg/mL) were immobilized on streptavidin (SA) biosensors (Pall) for 300 sec to ensure saturation. Associate and dissociation reactions were set in 96-well microplates filled with 200 μL of unbiotinylated DR5 agonist for 900 seconds. All interactions were conducted at 37° C. in PBS buffer containing 2 mg/ml BSA. These binding observations were also confirmed by biotinylating the agonist antibodies and probed against unbiotinylated DR5-Fc variants. Kinetic parameters (KON and KOFF) and affinities (KD) were analyzed using Octet data analysis software, version 9.0 (Pall).
To confirm furin binding and competing function, farletuzumab-FuG1 and farletuzumab-cFuG1 were expressed in the presence of furin inhibitors. Purified antibodies were analyzed for their Fc-extended peptide binding to biotinylated furin using BLI. […] The latter indicated a potential higher competitive furin occupancy time of FuG1 peptide with the increased antibody concentration (Hoare et al., 2020).

[10] = tested on: spike S0 and S2; format: cell-based, SARS-CoV-2
[11] = tested on: 293-ACE2 and RFP-stable HCC-1806 cells; assay: Syncytia in Spike-EGFP transfected co-culture of 293-ACE2 and HCC-1806 cells; format: cell-based; conditions: co-cultures, 100 μg antibody

T1 sequence (P09958 108-794): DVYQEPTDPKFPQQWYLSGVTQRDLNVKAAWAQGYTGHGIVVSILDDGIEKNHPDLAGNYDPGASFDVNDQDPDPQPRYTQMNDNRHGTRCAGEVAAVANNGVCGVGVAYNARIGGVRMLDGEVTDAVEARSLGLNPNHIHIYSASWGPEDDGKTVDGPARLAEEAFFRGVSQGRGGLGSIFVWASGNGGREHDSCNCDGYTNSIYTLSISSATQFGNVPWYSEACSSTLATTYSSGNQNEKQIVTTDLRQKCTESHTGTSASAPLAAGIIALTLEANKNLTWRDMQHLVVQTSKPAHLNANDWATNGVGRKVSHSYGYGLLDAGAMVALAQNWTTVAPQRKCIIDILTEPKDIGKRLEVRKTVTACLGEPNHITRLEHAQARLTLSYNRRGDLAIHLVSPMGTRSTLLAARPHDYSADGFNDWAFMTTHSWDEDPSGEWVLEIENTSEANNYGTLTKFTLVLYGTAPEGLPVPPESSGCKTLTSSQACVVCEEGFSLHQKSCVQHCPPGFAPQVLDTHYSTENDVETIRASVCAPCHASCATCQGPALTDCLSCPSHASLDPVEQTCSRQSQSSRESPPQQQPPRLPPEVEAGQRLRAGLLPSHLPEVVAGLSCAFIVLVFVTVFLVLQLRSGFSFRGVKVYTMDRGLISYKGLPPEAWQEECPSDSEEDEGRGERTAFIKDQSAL
T2 sequence (P15328 25-233 limits assumed): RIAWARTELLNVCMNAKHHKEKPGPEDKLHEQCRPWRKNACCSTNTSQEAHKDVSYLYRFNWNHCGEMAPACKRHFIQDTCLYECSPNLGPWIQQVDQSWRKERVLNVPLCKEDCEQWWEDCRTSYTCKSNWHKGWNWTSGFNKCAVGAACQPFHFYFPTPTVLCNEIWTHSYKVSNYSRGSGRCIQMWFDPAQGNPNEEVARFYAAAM

## EGGGSGRERKARGGCPGS [FuG1 peptide]
[1]
  cleavage by recombinant furin in vitro: not cleaved

## CC(C)C[C@@H](C=O)NC(=O)[C@H](CC(C)C)NC(=O)[C@H](CC(C)C)NC(=O)OCc1ccccc1 [MG132] (Cbz-Leu-Leu-Leu-aldehyde)
[2]
  furin processing of WT and ΔRRAR spike: did not interfere
  rescue of spike S0 loss: partial rescue of spike S0 loss
  total spike S0 signal: at least two-fold higher; also recorded: significantly increased
[3]
  pseudoviral S2 fragment generation: remained inhibited
  pseudoviral spike S0 destabilization: rescued spike S0 destabilization

## C[C@H]1CCC/C=C/[C@@H]2C[C@H](O)C[C@H]2[C@H](O)/C=C/C(=O)O1 [Bfa, Brefeldin-A]
[4]
  spike S1/S2 cleavage: completely inhibited

B1: 6.29-IgG1: ACE-2-RBD neutralizing antibody (Rogers et al., 2020); SEQ ID NOs: 11 and 15 (protein)
light: DIQLTQSPSSLSASVGDRVTITCRASQTASSYLNWYQQKPGKAPNLLIYAASSLQSGVPSRFSGSGSVTDFTLTISSLQPEDFATYYCQQSYSTPPTFGQGTKVDIKRTVAAPSVFIFPPSDEQLKSGTASVVCLLNNFYPREAKVQWKVDNALQSGNSQESVTEQDSKDSTYSLSSTLTLSKADYEKHKVYACEVTHQGLSSPVTKSFNRGEC
heavy: QVQLVQSGSELKKPGASVKVSCKASGYTFATYALNWVRQAPGQGLEWMGWVNTNTGSPTYAQGFTGRFVFSFDTSVSTAYLQIRTLKAEDTAVYYCAVYYYDSGSPGWFDPWGQGTLVTVSSASTKGPSVFPLAPSSKSTSGGTAALGCLVKDYFPEPVTVSWNSGALTSGVHTFPAVLQSSGLYSLSSVVTVPSSSLGTQTYICNVNHKPSNTKVDKKVEPKSCDKTHTCPPCPAPEAAGGPSVFLFPPKPKDTLMISRTPEVTCVVVDVSHEDPEVKFNWYVDGVEVHNAKTKPREEQYNSTYRVVSVLTVLHQDWLNGKEYKCKVSNKALPAPIEKTISKAKGQPREPQVYTLPPSREEMTKNQVSLTCLVKGFYPSDIAVEWESNGQPENNYKTTPPVLDSDGSFFLYSKLTVDKSRWQQGNVFSCSVMHEALHNHYTQKSLSLSLGK
[5]
  syncytia blockade: significantly more effective; also recorded: significantly effective
[6]
  inhibition of spike cleavage at S1/S2: non-inhibitory

B2: farletuzumab-FuG1 (antibody)
heavy: EVQLVESGGGVVQPGRSLRLSCSASGFTFSGYGLSWVRQAPGKGLEWVAMISSGGSYTYYADSVKGRFAISRDNAKNTLFLQMDSLRPEDTGVYFCARHGDDPAWFAYWGQGTPVTVSSASTKGPSVFPLAPSSKSTSGGTAALGCLVKDYFPEPVTVSWNSGALTSGVHTFPAVLQSSGLYSLSSVVTVPSSSLGTQTYICNVNHKPSNTKVDKKVEPKSCDKTHTCPPCPAPEAAGGPSVFLFPPKPKDTLMISRTPEVTCVVVDVSHEDPEVKFNWYVDGVEVHNAKTKPREEQYNSTYRVVSVLTVLHQDWLNGKEYKCKVSNKALPAPIEKTISKAKGQPREPQVYTLPPSREEMTKNQVSLTCLVKGFYPSDIAVEWESNGQPENNYKTTPPVLDSDGSFFLYSKLTVDKSRWQQGNVFSCSVMHEALHNHYTQKSLSLSLPGKEGGGSGRERKARGGCPGS
light: DIQLTQSPSSLSASVGDRVTITCSVSSSISSNNLHWYQQKPGKAPKPWIYGTSNLASGVPSRFSGSGSGTDYTFTISSLQPEDIATYYCQQWSSYPYMYTFGQGTKVEIKRTVAAPSVFIFPPSDEQLKSGTASVVCLLNNFYPREAKVQWKVDNALQSGNSQESVTEQDSKDSTYSLSSTLTLSKADYEKHKVYACEVTHQGLSSPVTKSFNRGEC
notes: also called Farle-FuG1; Farletuzumab-FuG1 antibody
[7]
  binding result: binds

B3: farletuzumab-FuG1: anti-FOLR1 farletuzumab with FuG1 Fc-extended peptide (SEQ ID NO: 44) (antibody)
heavy: B2 heavy
light: B2 light
[8]
  inhibition of furin protease activity: significant inhibition
[9]
  furin association rate (KON): lower
  furin binding affinity (KD): lower
  furin dissociation rate (KOFF), fold reduced: ~10 fold
[10]
  S0 and S2 in co-culture lysates: only partially reduced S2 conversion
[11]
  syncytia load reduced: ~30%
